The results in this text go back to US20220135665A1.

What is called Kd is the free concentration of one partner at which half of the binding sites on the other are occupied at equilibrium, for simple one-to-one binding. By koff is commonly meant the first-order rate constant of dissociation. For orientation: kon means the second-order rate constant of association. Broadly, the EC50 is the midpoint of the concentration-response curve.

Where “and” joins values, the source holds several entries; their conditions need not be identical. Identical values can stand only once.

For assay [1], the target named is recombinant human VEGF165 protein (human) (UniProt P15692). The experiment in a line: cell-based or functional assay.
Assay [2] shares this target. Kind of assay: streptavidin-coated sensor with immobilized biotin-labeled VEGF165; reference Lucentis.
The target is the same in assay [3]. Kind of assay: streptavidin-coated sensor with immobilized biotin-labeled VEGF165, Fab at multiple concentrations.
For assay [4] the target is unchanged. The experiment in a line: ELISA; coated VEGF165 titrated (0.15-3000 ng/mL), Fab fixed at 1 ug/mL; EC50 is in coated antigen concentration.
For assay [5] the target is unchanged. Kind of assay: Table 3, binding affinity to recombinant VEGF165 (streptavidin-coated sensor, biotin-labeled VEGF165).

B1: Brolucizumab (scFv, INN chains, looked up, V domains shown)
VH: EVQLVESGGGLVQPGGSLRLSCTASGFSLTDYYYMTWVRQAPGKGLEWVGFIDPDDDPYYATWAKGRFTISRDNSKNTLYLQMNSLRAEDTAVYYCAGGDHNSGWGLDIWGQGTLVTVSS
VL: EIVMTQSPSTLSASVGDRVIITCQASEIIHSWLAWYQQKPGKAPKLLIYLASTLASGVPSRFSGSGSGAEFTLTISSLQPDDFATYYCQNVYLASTNGANFGQGTKLTVL
modifications: scFv
Consider B1, for which, in assay [1], the EC50(nM), neutralization of HUVEC proliferation, VEGF165 at 10 ng/mL is 0.41 nM; the EC50(nM), neutralization of HUVEC proliferation, VEGF165 at 100 ng/mL was 6.74 nM; the EC50(nM), neutralization of HUVEC proliferation, VEGF165 at 1000 ng/mL came out at 71.2 nM; the Maximum neutralization rate (%), VEGF165 at 10 ng/mL came to 100%. For the same molecule, in assay [1], the Maximum neutralization rate (%), VEGF165 at 100 ng/mL was found to be 101% and the Maximum neutralization rate (%), VEGF165 at 1000 ng/mL came out at 101%.

B2: humanized antibody VEGF-H988 Fab fragment (Fab, V domains shown)
VH: QSVQESGPGLVKPSETLSLTCTVSGIDLSSYAISWVRQPPGKGLEYIGYIWNDLFTYYASWAKGRVTISVDTSKNQVDLKLSSVTAADTAVYFCARGTLGDYGGMDPWGQGTLVTVSS
VL: ELQLTQSPSSLSASVGDRVTITCQSSKFLWQGRRLAWYQQKPGKVPKLLIYGASTLASGVPSRFKGSGSGTDFTLTISSLQPEDVATYYCAGYKSYDGDVVGFGGGTKVEIKR
For the molecule B2, the EC50(nM), neutralization of HUVEC proliferation, VEGF165 at 10 ng/mL in assay [1] is 0.23 nM and 0.18 nM and 0.22 nM. In addition, the fold affinity against Lucentis in assay [2] stood at 3.75 fold. In assay [3], the Kd is 0.154 nM, the koff stood at 4.21e-05 s⁻¹ and the kon was determined as 274000 M⁻¹ s⁻¹. Further, in assay [4], the EC50 was found to be 0.0187 µg/mL.

B3: VEGF-H988 (sample label in Table 3) (antibody, V domains shown)
VH: QSVQESGPGLVKPSETLSLTCTVSGIDLSSYAISWVRQPPGKGLEYIGYIWNDLFTYYASWAKGRVTISVDTSKNQVDLKLSSVTAADTAVYFCARGTLGDYGGMDPWGQGTLVTVSS
VL: ELQLTQSPSSLSASVGDRVTITCQSSKFLWQGRRLAWYQQKPGKVPKLLIYGASTLASGVPSRFKGSGSGTDFTLTISSLQPEDVATYYCAGYKSYDGDVVGFGGGTKVEIK
In the case of B3, in assay [5], the Kd was found to be 0.0195 nM, the koff came out at 6.7e-06 s⁻¹ and the kon was 344000 M⁻¹ s⁻¹.
